The RNAGym collection of RNA variant scans (doi:10.1073/pnas.2313332121)
This sample holds only a part of the variants without activity.

B1: TPR 5TU (parent)
chain: GGAUCUUCUCGAUCUAACAAAAAAGACAAAUCUGCCACAAAGCUUGAGAGCAUCUUCGGAUGCAGAGGCGGCAGCCUUCGGUGGCGCGAUAGCGCCAACGUUCUCAACUAUGACACGCAAAACGCGUGCUCCGUUGAAUGGAGUUUAUCAUG

Variants of: B1
Assay: polymerase ribozyme fitness, log enrichment relative to wild type (log ratio); higher = more active; in vitro selection for triplet polymerase activity
Method in brief: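 Input and output libraries were sequenced on Illumina after a single in vitro selection round, run in triplicate on PCR-built, transcribed mutant libraries of each subunit of a heterodimeric triplet polymerase ribozyme. Selection annealed libraries to a biotinylated primer, the partner subunit and triplets, incubated them frozen at −7 °C, then gel-excised extended constructs for streptavidin-bead capture and RT-PCR. Genotypes with ≥10 input reads and ≥1 read per output were kept. Fitness is the logarithm, taken in base 2, of genotype enrichment divided by wild-type enrichment, using inverse-variance-weighted replicate averages.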

Compared with A39G A47C C123U A150G G152A, C10G U53A G83U A91U A97G C103A is lower in “polymerase ribozyme fitness (log ratio)” value: -3.23 for the first, at most -4.2 for the second.

Compared with U82G U104C C116U C125U A138C, A47G C123G U151C is higher in “polymerase ribozyme fitness (log ratio)” value: at most -4.2 for the first, -4.15 for the second.

Compared with A20G A52G G58U C87U, C27A G46A U53A U56G A91C A106C A110G A138G is lower in “polymerase ribozyme fitness (log ratio)” value: -0.805 for the first, at most -4.2 for the second.

Going from U4A A20U G50C U55A A73G G84A G88C C132U U135A to G92A G141A, the “polymerase ribozyme fitness (log ratio)” value rises from at most -4.2 to -2.48.

U9A C96U A110C and C36G A47G U55C G84U C149A cannot be ordered by “polymerase ribozyme fitness (log ratio)” value: at most -4.2 for the first, at most -4.2 for the second.

G50A G59A G133U and U55A A64C C85U U146G cannot be ordered by “polymerase ribozyme fitness (log ratio)” value: at most -4.2 for the first, at most -4.2 for the second.

C18U U55A C57G A66U U82G G94C A113U and C27U C32G C36U C87G cannot be ordered by “polymerase ribozyme fitness (log ratio)” value: at most -4.2 for the first, at most -4.2 for the second.

First: U45A U55A C93U
Second: U7C A19C C57G C85U C96U U148A
The “polymerase ribozyme fitness (log ratio)” value of the first is higher: -3.88 for the first, at most -4.2 for the second.

Compared with U4A G34U U61G G70A C99U A107C U139G, G94C G126A is higher in “polymerase ribozyme fitness (log ratio)” value: at most -4.2 for the first, 0.311 for the second.

First: U45A C99A A106U A121U C149G G152A
Second: C54U G143A
The “polymerase ribozyme fitness (log ratio)” value of the first is lower: -4.01 for the first, -0.736 for the second.

Going from A12U A40U C85U U145C to A19U U31C C51U, the “polymerase ribozyme fitness (log ratio)” value rises from -1.21 to 0.159.

Compared with C123U G124A U144C, G92C A98G A115U is lower in “polymerase ribozyme fitness (log ratio)” value: 0.0575 for the first, -2.44 for the second.

Compared with U31C C79G U139C U144G, A3U A17C G94C is higher in “polymerase ribozyme fitness (log ratio)” value: at most -4.2 for the first, -0.825 for the second.

A23U C85G G141A and C32G G70C cannot be ordered by “polymerase ribozyme fitness (log ratio)” value: at most -4.2 for the first, at most -4.2 for the second.

Compared with A20U A39C, C54U C72U is higher in “polymerase ribozyme fitness (log ratio)” value: -3.84 for the first, -0.468 for the second.

Compared with C114U C131U, A89G U111C is lower in “polymerase ribozyme fitness (log ratio)” value: -1.64 for the first, at most -4.2 for the second.

Compared with C63G C95A A110G A122U, A49U U56G C85U G86U U102C is lower in “polymerase ribozyme fitness (log ratio)” value: -3.22 for the first, at most -4.2 for the second.

A26U A29C A47G A49U G59C G65A G117C U139G and C8U U44G U55A C79U G88A A110U cannot be ordered by “polymerase ribozyme fitness (log ratio)” value: at most -4.2 for the first, at most -4.2 for the second.

First: C35G C105U C129A A150C
Second: A23G G124C A147G A150G
The “polymerase ribozyme fitness (log ratio)” value of the first is higher: -4.14 for the first, at most -4.2 for the second.

First: A24C G46C A73G C93A A110U A147U
Second: A119U U144A
The “polymerase ribozyme fitness (log ratio)” value of the first is lower: at most -4.2 for the first, -0.171 for the second.

First: C72U C93U
Second: A3U U145C
The “polymerase ribozyme fitness (log ratio)” value of the first is lower: -0.741 for the first, -0.205 for the second.

Compared with U61G C76G C123U, A39C U145C is higher in “polymerase ribozyme fitness (log ratio)” value: at most -4.2 for the first, -1.66 for the second.

First: G42U U45G U53C G88U A137C
Second: G84U U101G U134G
The “polymerase ribozyme fitness (log ratio)” value of the first is lower: at most -4.2 for the first, -3.87 for the second.

Compared with G68A, C54U U55G U82G is higher in “polymerase ribozyme fitness (log ratio)” value: -3.29 for the first, -1.38 for the second.

Going from A52C U53A G65A A66C C79U C149U to C69G A119U, the “polymerase ribozyme fitness (log ratio)” value rises from at most -4.2 to -1.72.

First: U45A G117U
Second: U31C G42A U44G A60G A66G U82A C85A G128A
The “polymerase ribozyme fitness (log ratio)” value of the first is higher: -3.08 for the first, at most -4.2 for the second.

Compared with C85A C125A A137G, C18G U44A C96G G133A A137U is lower in “polymerase ribozyme fitness (log ratio)” value: -2.28 for the first, -4.04 for the second.

First: A21G G48A C54U G92A
Second: U53A G86A
The “polymerase ribozyme fitness (log ratio)” value of the first is lower: at most -4.2 for the first, -2.07 for the second.

A47C U102G A115U A142G U148A and U7G G74A C103A cannot be ordered by “polymerase ribozyme fitness (log ratio)” value: at most -4.2 for the first, at most -4.2 for the second.

First: A66G G133U U145A
Second: U55G C57A C69U U109G C116A
The “polymerase ribozyme fitness (log ratio)” value of the first is lower: at most -4.2 for the first, -0.0851 for the second.

First: C87U A97U
Second: U6C C27U U145C
The “polymerase ribozyme fitness (log ratio)” value of the first is higher: -2.25 for the first, -3.08 for the second.

First: G58C A89G
Second: A12G U55G
The “polymerase ribozyme fitness (log ratio)” value of the first is higher: -0.995 for the first, -2 for the second.

Compared with A12C C57A G83U G136C, A39U A73U is lower in “polymerase ribozyme fitness (log ratio)” value: -3.78 for the first, -4.11 for the second.

Going from G50U C87U C96A to G50C C69A C79A U82G U90G A107G A120G C129G U139G C149G, the “polymerase ribozyme fitness (log ratio)” value falls from -1.48 to at most -4.2.

A41C G50C U55A C85G and A30U G62U U90G C95A A107C C118A A142G cannot be ordered by “polymerase ribozyme fitness (log ratio)” value: at most -4.2 for the first, at most -4.2 for the second.

Compared with G34C U139G, A40U C51U G83C is higher in “polymerase ribozyme fitness (log ratio)” value: -3.21 for the first, -0.981 for the second.

Going from G59C G83A to A39U G86A, the “polymerase ribozyme fitness (log ratio)” value falls from -0.754 to -3.06.

Going from C54U A150G to U55A G128A, the “polymerase ribozyme fitness (log ratio)” value falls from -0.995 to -4.18.

U13A C27A C54A U56A G65C G92C A97G U101G G140U and A22U G58A A60C U111A cannot be ordered by “polymerase ribozyme fitness (log ratio)” value: at most -4.2 for the first, at most -4.2 for the second.

A26U U78A C96A C116U U146C and A16U C38U A60C G80U A97G cannot be ordered by “polymerase ribozyme fitness (log ratio)” value: at most -4.2 for the first, at most -4.2 for the second.

First: C79U G81U G92C U127G
Second: U31A A52C G58C G83A
The “polymerase ribozyme fitness (log ratio)” value of the first is lower: at most -4.2 for the first, -4.11 for the second.

Compared with A21C G62C, C51A C85A U134C is lower in “polymerase ribozyme fitness (log ratio)” value: -0.587 for the first, -2.88 for the second.
